The record followed here is publication PMC3592466 (Nucleic Acids Research, 2012).

In this assay the target is T1, BcgI A subunit, E53A mutant (UniProt Q07605 1-637, E53A).
T1 sequence (looked up): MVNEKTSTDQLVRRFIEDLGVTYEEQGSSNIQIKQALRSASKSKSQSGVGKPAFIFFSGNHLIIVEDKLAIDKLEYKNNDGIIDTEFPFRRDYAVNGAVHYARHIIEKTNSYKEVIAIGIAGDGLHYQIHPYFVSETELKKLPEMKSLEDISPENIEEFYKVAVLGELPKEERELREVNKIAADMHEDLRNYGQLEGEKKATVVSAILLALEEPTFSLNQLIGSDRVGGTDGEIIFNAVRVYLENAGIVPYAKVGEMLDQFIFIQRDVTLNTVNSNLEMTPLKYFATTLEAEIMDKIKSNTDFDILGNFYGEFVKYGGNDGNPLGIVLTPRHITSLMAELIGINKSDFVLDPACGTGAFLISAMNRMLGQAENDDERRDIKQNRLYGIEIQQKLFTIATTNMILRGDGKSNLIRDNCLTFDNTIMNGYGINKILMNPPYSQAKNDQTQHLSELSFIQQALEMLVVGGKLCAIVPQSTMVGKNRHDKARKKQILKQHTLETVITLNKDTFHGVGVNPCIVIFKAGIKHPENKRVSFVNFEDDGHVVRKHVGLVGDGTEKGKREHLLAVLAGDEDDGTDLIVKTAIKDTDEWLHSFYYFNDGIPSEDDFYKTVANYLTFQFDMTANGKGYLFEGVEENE
Nature of the assay: native MS.

B1: BcgI B subunit (natural protein, UniProt Q07606 1-341, looked up)
chain: MNNLIKYSTFLISDLFDVVIGKTIDGNKAQRNENGTPYITRKATRNGFEFMIDGEKEKLYSGKLPVITIGNETSKPFVQEFHFFTGTKVNICIPKLDLNRNHLLYITTMIENATKMFSYSYTINSTRLKSLKILLPIKGEEPDWDYMNTYISKILSNMEKNFDVQQNDGVSDLRSLKDLSWSQFKMDEIFSINSGVRLTKADMKPGNIPFIGATDSNNGITEFTSSTNASFDGNVLGVNYNGSVVENFYHPYKAVFSDDVKRLKLKNYPNNKHVLLFMKVVILQQKVKYAYGYKFNATRMKEQIILLPTKADGTPDYEFMEQYMMRMENKVVGRTTEKEAD
With B1, the binding result is recorded as “binds”.
